Experiments:
[1] = target: the molecule itself; assay: SEC-MALS; full-length P0 in 0.1% DPC micelles, Superdex 200, 250 mM sodium phosphate pH 8.0, 1 mM EDTA; protein conjugate analysis
[2] = target: the molecule itself; assay: SEC-MALS; full-length P0 in 0.1% LDAO micelles, Superdex 200, 250 mM sodium phosphate pH 8.0, 1 mM EDTA; protein conjugate analysis

B1: full-length myelin protein zero (P0) from bovine peripheral myelin (natural protein, UniProt P10522 29-248, looked up)
chain: AIVVYTDKEVHGAVGSQVTLYCSFWSSEWVSDDLSFTWRYQPEGGRDAISIFHYAKGQPYIDEVGTFKERIQWVGDPHRKDGSIVIHNLDYGDNGTFTCDVKNPPDIVGKTSQVTLYVFEKVPTRYGVVLGAVIGGVLGVVLLALLLFYLIRYCWLRRQAALQRRLSAMEKGKLHKTAKDASKRGRQTPVLYAMLDHSRSTKAASEKKTKGLGESRKDKK
modifications: N-linked glycan structures belonging to hybrid types
notes: myelin protein zero (P0, MPZ), bovine, native protein from the raft fraction of peripheral myelin; Oligomeric state depended on detergent: tetramer in DPC, dimer in LDAO; also called MPZ; full-length P0
Which “stoichiometry N” value [1] does the source give for B1 here?
Its value is 4.

And the “stoichiometry N” value [2]?
The value was 2.

— publication PMC6345808, “Molecular structure and function of myelin protein P0 in membrane stacking” (Scientific Reports, 2019)
